Test results from patent US7067618B1, “Medicinal preparations” (Kyowa Hakko Kogyo Co., Ltd., priority 1998, dated 2006).

Assays:
[1] = Release of lactose from insulin-lactose reaction products caused by pH lowering (HPLC); type: physicochemical; settings: for Proportion by HPLC, Release of Lactose Caused by pH Lowering to 5.0: pH 5.0, 40° C.; for Proportion by HPLC, Release of Lactose Caused by pH Lowering to 5.9: pH 5.9, 40° C.; for Proportion by HPLC, Release of Lactose Caused by pH Lowering to 6.7: pH 6.7, 40° C.
Protocol: A solution of 0.2 mg of bovine pancreatic insulin (Wako Pure Chemical Industries, Itd.) in 1 mL of a 2 mmol/L aqueous solution of hydrochloric acid, a solution of 320 mg of anhydrous β-lactose (Nacalai Tesque, Inc.) in 2 mL of distilled water, and 1 mL of a 200 mmol/L phosphate buffer (pH 8.4) were mixed in a test tube to give a mixture having a pH of about 8.1. The test tube was put into a constant temperature water bath at 40° C. to cause reaction. The reaction mixture was sampled after 0, 5 and 24 hours, and analyzed for products obtained by the reaction of insulin with lactose by high performance liquid chromatography (HPLC) under the following conditions. • Column: YMC-Pack ODS-A or YMC-Pack ODS-AM, 6.0×150 mm • Mobile phase: 100 mmol/L phosphate buffer (pH 8.0) containing 0.001% Triton X-100: acetonitrile containing 0.001% Triton X-100=25 parts by volume: 9 parts by volume • Flow rate: 1.3 mL/minute • Detection wavelength: 210 nm
(§1) A solution of 0.2 mg of bovine pancreatic insulin (Wako Pure Chemical Industries, Itd.) in 1 mL of a 2 mmol/L aqueous solution of hydrochloric acid, a solution of 320 mg of anhydrous β-lactose (Nacalai Tesque, Inc.) in 2 mL of distilled water, and 1 mL of a 200 mmol/L phosphate buffer (pH 8.4) were mixed in a test tube. The mixture was subjected to reaction at 40° C. for 24 hours. To 3 mL of the resulting solution was added 0.5 mL of a 50 mmol/L aqueous solution of citric acid to adjust the pH to 6.7, and the mixture was subjected to reaction at 40° C. The samples collected from the reaction mixture 0 and 30 minutes after the start of the reaction were analyzed for products obtained by the reaction of insulin with lactose by HPLC in a manner similar to that in Example 1.
as §1, with “100” for “50”, “5.9,” for “6.7,”, “The” for “The samples collected from the”, “was intermittently” for “0 and 30 minutes after the start of the reaction were”
as §1, with “a 150” for “a 50”, “to 5.0,” for “to 6.7,”, “The” for “The samples collected from the”, “mixture was intermittently sampled” for “mixture 0”, “and” for “and 30 minutes after the start of the reaction were”

[2] = Release of sialyllactose from insulin-sialyllactose reaction products caused by pH lowering (HPLC); type: physicochemical; settings: for Proportion by HPLC, Release of Sialyllactose Caused by pH Lowering to 5.3: pH 5.3, 40° C.; for Proportion by HPLC, Release of Sialyllactose Caused by pH Lowering to 6.4: pH 6.4, 40° C.
Protocol: Bovine pancreatic insulin (0.2 mg, Wako Pure Chemical Industries, Ltd.) was dissolved in 1 mL of a 1 mmol/L aqueous solution of hydrochloric acid. To about 25 mg of sialyllactose of 75% purity (a mixture of 3′-sialyllactose and 6′-sialyllactose, Boehringer Mannheim GmbH) was added 0.1 mL of a 600 mmol/L aqueous solution of disodium hydrogenphosphate to make a solution. The insulin solution (0.1 mL) and the sialyllactose solution (0.1 mL) were mixed in a test tube to give a mixture having a pH of about 7.8. The test tube was put into a constant temperature water bath at 40° C. to cause reaction and left for 3 days. The reaction mixture was sampled intermittently, followed by centrifugation at 3000 rpm for 20 minutes to remove insoluble materials. The samples collected 0, 1 and 3 days after the start of the reaction were analyzed for products obtained by the reaction of insulin with sialyllactose by HPLC under the following conditions. • Column: YMC-Pack ODS-AP, 4.6×150 mm • Mobile phase: 20 mmol/L phosphate buffer (pH 8.0) containing 0.001% Triton X-100: acetonitrile containing 0.001% Triton X-100=411 parts by volume: 140 parts by volume • Flow rate: 1.3 mL/minute • Detection wavelength: 220 nm
(§2) Bovine pancreatic insulin (0.2 mg, Wako Pure Chemical Industries, Ltd.) was dissolved in 1 mL of a 1 mmol/L aqueous solution of hydrochloric acid. To about 25 mg of sialyllactose of 75% purity (a mixture of 3′-sialyllactose and 6′-sialyllactose, Boehringer Mannheim GmbH) was added 0.1 mL of a 600 mmol/L aqueous solution of disodium hydrogenphosphate to make a solution. The insulin solution (0.1 mL) and the sialyllactose solution (0.1 mL) were mixed in a test tube to give a solution having a pH of about 7.8. This solution was subjected to reaction at 40° C. for 3 days and then centrifuged at 3000 rpm for 20 minutes. To 40 μL of the supernatant was added 0.04 mL of a 50 mmol/L-aqueous solution of citric acid to adjust the pH to 6.4, and the resulting solution was subjected to reaction at 40° C. The reaction mixture was intermittently sampled and analyzed for products obtained by the reaction of insulin with sialyllactose by HPLC in a manner similar to that in Example 2.
as §2, with “centrifuged 1” for “centrifuged”, “100 mmol/L aqueous” for “50 mmol/L-aqueous”, “5.3,” for “6.4,”

Insulin: bovine pancreatic insulin (Wako Pure Chemical Industries); free insulin to which no sugar is bound
Proportion by HPLC, Release of Lactose Caused by pH Lowering to 5.0 ([1]; 0 minute): 21%
Proportion by HPLC, Release of Lactose Caused by pH Lowering to 5.0 ([1]; 2 minutes): 60%
Proportion by HPLC, Release of Lactose Caused by pH Lowering to 5.0 ([1]; 10 minutes): 83%
Proportion by HPLC, Release of Lactose Caused by pH Lowering to 5.0 ([1]; 30 minutes): 93%
Proportion by HPLC, Release of Lactose Caused by pH Lowering to 5.0 ([1]; 60 minutes): 95%
Proportion by HPLC, Release of Lactose Caused by pH Lowering to 5.9 ([1]; 0 minute): 24%
Proportion by HPLC, Release of Lactose Caused by pH Lowering to 5.9 ([1]; 2 minutes): 35%
Proportion by HPLC, Release of Lactose Caused by pH Lowering to 5.9 ([1]; 10 minutes): 59%
Proportion by HPLC, Release of Lactose Caused by pH Lowering to 5.9 ([1]; 30 minutes): 76%
Proportion by HPLC, Release of Lactose Caused by pH Lowering to 5.9 ([1]; 60 minutes): 75%
Proportion by HPLC, Release of Lactose Caused by pH Lowering to 6.7 ([1]; 0 minute): 25%
Proportion by HPLC, Release of Lactose Caused by pH Lowering to 6.7 ([1]; 30 minutes): 45%
Proportion by HPLC, Release of Sialyllactose Caused by pH Lowering to 5.3 ([2]; 0 minute): 31%
Proportion by HPLC, Release of Sialyllactose Caused by pH Lowering to 5.3 ([2]; 10 minutes): 58%
Proportion by HPLC, Release of Sialyllactose Caused by pH Lowering to 5.3 ([2]; 30 minutes): 80%
Proportion by HPLC, Release of Sialyllactose Caused by pH Lowering to 6.4 ([2]; 0 minute): 31%
Proportion by HPLC, Release of Sialyllactose Caused by pH Lowering to 6.4 ([2]; 10 minutes): 44%
Proportion by HPLC, Release of Sialyllactose Caused by pH Lowering to 6.4 ([2]; 30 minutes): 50%
